Test [1] addresses ClpP protease (UniProt P0A6G7). As to the kind of experiment: HDX-MS; BAP (100 pmol) with ClpP (200 pmol), 3 min at 30°C in low salt buffer A (50 mM Tris pH 7.5, 25 mM KCl, 20 mM MgCl2, 2 mM DTT) with ATPγS, diluted 20-fold into D2O buffer, 60 s exchange; mass of full length BAP.
Test [2] deals with ClpP protease (UniProt P0A6G7). Kind of test: negative-stain EM single-particle reconstruction; BAP(HAP)-ClpP complexes formed in 20 mM Tris-HCl pH 7.5, 20 mM KCl, 15 mM MgCl2, 1 mM DTT, 2 mM ATPγS; stained with 2% uranyl acetate; side views of 2:2 complexes cut into 1:1 halves; sixfold symmetry imposed or none.
Sequence of ClpP protease (P0A6G7 15-207): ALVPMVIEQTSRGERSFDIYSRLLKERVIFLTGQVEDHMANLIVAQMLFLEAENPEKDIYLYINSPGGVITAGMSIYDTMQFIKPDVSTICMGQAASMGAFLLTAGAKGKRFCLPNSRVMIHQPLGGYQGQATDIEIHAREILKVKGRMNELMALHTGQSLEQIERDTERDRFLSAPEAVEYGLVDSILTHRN
Test [3] deals with BAP (ClpB with the ClpA tripeptide for ClpP binding), wild type (E. coli | not stated). The description is as above.
Test [4] has as its target BAP Trap (E279A/E678A) variant (E. coli | not stated). Kind of test: cryo-EM structure; BAPtrap-ClpP and ClpB alone, vitrified, in the presence of ATPγS; side views only.
Test [5] deals with BAP-E432A (repressed mutant) (E. coli | not stated). As to the kind of experiment: negative-stain EM single-particle reconstruction; BAP(HAP)-ClpP complexes formed in 20 mM Tris-HCl pH 7.5, 20 mM KCl, 15 mM MgCl2, 1 mM DTT, 2 mM ATPγS; stained with 2% uranyl acetate; side views of 2:2 complexes cut into 1:1 halves; sixfold symmetry imposed or none.
Test [6] addresses HAP (Hsp104 with the ClpA tripeptide for ClpP binding) (S. cerevisiae). Described as above.

Consider “BAP (ClpB with the ClpA tripeptide for ClpP binding), wild type”, for which the amide protons in BAP protected from exchange by ClpP (amide protons) with ClpP protease [1] is 30. Also, the stoichiometry N (BAP hexamers per ClpP double-heptamer) with ClpP protease [2] stood at 2. The stoichiometry N (usually the number of molecules, sites or subunits per partner or assembly) in test [3] is 6.

In the case of BAP Trap (E279A/E678A) variant, the stoichiometry N in test [4] is 6.

As for BAP-E432A (repressed mutant), the stoichiometry N in test [5] was 6.

As for “HAP (Hsp104 with the ClpA tripeptide for ClpP binding)”, the stoichiometry N in test [6] stood at 6.

(Values after publication PMC4023160.)
